How the values were obtained:
[1] = target: T1, CDC2L5 peptide SRRRSPSYSRHS (SEQ ID NO:214) (not fully specified)
T1 chain: SRRRSPSYSRHS

[2] = target: T2, S1P1 receptor peptide RTRSRRLTFRK (SEQ ID NO:169) (not fully specified)
T2 chain: RTRSRRLTFRK

[3] = target: T3, myosin IF peptide KKERRRNSINRN (SEQ ID NO:174) (not fully specified)
T3 chain: KKERRRNSINRN

[4] = target: T4, CDC2L5 peptide RHSRSRSRHRLS (SEQ ID NO:213) (not fully specified)
T4 chain: RHSRSRSRHRLS

[5] = target: T5, IDN3 peptide VSRPRKSRKRVD (SEQ ID NO:208) (not fully specified)
T5 chain: VSRPRKSRKRVD

[6] = target: T6, IDN3 peptide VRRRRSQRISQR (SEQ ID NO:172) (not fully specified)
T6 chain: VRRRRSQRISQR

[7] = target: T7, BTK peptide ERGRRGSKKGSI (SEQ ID NO:188) (not fully specified)
T7 chain: ERGRRGSKKGSI

[8] = target: T8, DOCK2 peptide VKLRRSKKRTKR (SEQ ID NO:170) (not fully specified)
T8 chain: VKLRRSKKRTKR

[9] = target: T9, CXCR4 peptide VSRGSSLKILSK (SEQ ID NO:212) (not fully specified)
T9 chain: VSRGSSLKILSK

[10] = target: T10, GRK6 peptide GNRKGKSKKWRQ (SEQ ID NO:192) (not fully specified)
T10 chain: GNRKGKSKKWRQ

B1: PKC-theta (protein)
chain: MSPFLRIGLSNFDCGSCQSCQGEAVNPYCAVLVKEYVESENGQMYIQKKPTMYPPWDSTFDAHINKGRVMQIIVKGKNVDLISETTVELYSLAERCRKNNGKTEIWLELKPQGRMLMNARYFLEMSDTKDMNEFETEGFFALHQRRGAIKQAKVHHVKCHEFTATFFPQPTFCSVCHEFVWGLNKQGYQCRQCNAAIHKKCIDKVIAKCTGSAINSRETMFHKERFKIDMPHRFKVYNYKSPTFCEHCGTLLWGLARQGLKCDACGMNVHHRCQTKVANLCGINQKLMAEALAMIESTQQARCLRDTEQIFREGPVEIGLPCSIKNEARPPCLPTPGKREPQGISWESPLDEVDKMCHLPEPELNKERPSLQIKLKIEDFILHKMLGKGSFGKVFLAEFKKTNQFFAIKALKKDVVLMDDDVECTMVEKRVLSLAWEHPFLTHMFCTFQTKENLFFVMEYLNGGDLMYHIQSCHKFDLSRATFYAAEIILGLQFLHSKGIVYRDLKLDNILLDKDGHIKIADFGMCKENMLGDAKTNTFCGTPDYIAPEILLGQKYNHSVDWWSFGVLLYEMLIGQSPFHGQDEEELFHSIRMDNPFYPRWLEKEAKDLLVKLFVREPEKRLGVRGDIRQHPLFREINWEELERKEIDPPFRPKVKSPFDCSNFDKEFLNEKPRLSFADRALINSMDQNMFRNFSFMNPGMERLIS
In the case of B1, the in vitro phosphorylation (% of best substrate) [1] is reported as 13, the in vitro phosphorylation (% of best substrate) [2] is reported as 100 and the in vitro phosphorylation (% of best substrate) [3] is reported as 83. It also gave an in vitro phosphorylation (% of best substrate) [4] of 13, an in vitro phosphorylation (% of best substrate) [5] of 17 and an in vitro phosphorylation (% of best substrate) [6] of 86. For the same protein, the in vitro phosphorylation (% of best substrate) [7] was 44, the in vitro phosphorylation (% of best substrate) [8] was 98 and the in vitro phosphorylation (% of best substrate) [9] was 13. For the same protein, the in vitro phosphorylation (% of best substrate) [10] was 35.
